Laboratory results reported in paper PMC5136324 (Molecular cancer therapeutics, 2016).
Ends that are not written are not given here. * marks the point of attachment. FITC = O=C1OC2(c3ccc(O)cc3Oc3cc(O)ccc32)c2ccc(NC(=S)*)cc21

Biological target: AR ligand binding domain (residues 670-920), biotinylated, N-terminal (His)6-avidin tag (human, UniProt P10275 670-920, biotin (biotinylated form))
Experiment: FRET or BRET

binding result: binds
Binder: {FITC}-MPQDLRSPARTPPSEEDSAEA [FITC-labelled SGTA peptide (FITC-MPQDLRSPARTPPSEEDSAEA)]
